Sequences and labels used below:
B1: GST-CDH23 + exon68 (cytoplasmic region of cadherin-23 including the exon68-encoded sequence, residues 847-1114) (domain or fragment)
chain: NWYYRTVHKRKLKAIVAGSAGNRGFIDIMDMPNTNKYSFDGANPVWLDPFCRNLELAAQAEHEDDLPENLSEIADLWNSPTRTHGTFGREPAAVKPDDDRYLRAAIQEYDNIAKLGQIIREGPIKGSLLKVVLEDYLRLKKLFAQRMVQKASSCHSSISELIQTELDEEPGDHSPGQGSLRFRHKPPVELKGPDGIHVVHGSTGTLLATDLNSLPEEDQKGLGRSLETLTAAEATAFERNARTESAKSTPLHKLRDVIMETPLEITEL
B2: full-length harmonin-a (natural protein)
chain: MDRKVAREFRHKVDFLIENDAEKDYLYDVLRMYHQTMDVAVLVGDLKLVINEPNRLPLFDAIRPLIPLKHQVEYDQLTPRRSRKLKEVRLDRLHPEGLGLSVRGGLEFGCGLFISHLIKGGQADSVGLQVGDEIVRINGYSISSCTHEEVINLIRTKKTVSIKVRHIGLIPVKSSPEESLKWQYVDQFVSESGGVRGGLGSPGNRTTKEKKVFISLVGSRGLGCSISSGPIQKPGIFVSHVKPGSLSAEVGLETGDQIVEVNGIDFTNLDHKEAVNVLKSSRSLTISIVAGAGRELFMTDRERLEEARQRELQRQELLMQKRLAMESNKILQEQQEMERQRRKEIAQKAAEENERYRKEMEQISEEEEKFKKQWEEDWGSKEQLILPKTITAEVHPVPLRKPKYDQGVEPADHLDGSTEEQRQQDFRKYEEGFDPYSMFSPEQIAGKDVRLLRIKKEGSLDLALEGGVDSPVGKVVVSAVYEGGAAERHGGVVKGDEIMAINGKIVTDYTLAEAEAALQKAWNQGGDWIDLVVAVCPPKEYDDEL
B3: GST-CDH23Δexon68 (cytoplasmic region of cadherin-23 lacking the exon68-encoded sequence, residues 847-1079) (domain or fragment)
chain: NWYYRTVHKRKLKAIVAGSAGNRGFIDIMDMPNTNKYSFDGANPVWLDPFCRNLELAAQAEHEDDLPENLSEIADLWNSPTRTHGTFGREPAAVKPDDDRYLRAAIQEYDNIAKLGQIIREGPIKLIQTELDEEPGDHSPGQGSLRFRHKPPVELKGPDGIHVVHGSTGTLLATDLNSLPEEDQKGLGRSLETLTAAEATAFERNARTESAKSTPLHKLRDVIMETPLEITEL
B4: GST-CDH23 + exon68ΔITEL (residues 847-1110) (domain or fragment)
chain: NWYYRTVHKRKLKAIVAGSAGNRGFIDIMDMPNTNKYSFDGANPVWLDPFCRNLELAAQAEHEDDLPENLSEIADLWNSPTRTHGTFGREPAAVKPDDDRYLRAAIQEYDNIAKLGQIIREGPIKGSLLKVVLEDYLRLKKLFAQRMVQKASSCHSSISELIQTELDEEPGDHSPGQGSLRFRHKPPVELKGPDGIHVVHGSTGTLLATDLNSLPEEDQKGLGRSLETLTAAEATAFERNARTESAKSTPLHKLRDVIMETPLE

Holding throughout (assay): SPR
The target in assay [1] is T1, harmonin-a Nter-PDZ1-PDZ2 fragment (residues 1-299) (UniProt Q9ES64 1-299).
T1 sequence (looked up): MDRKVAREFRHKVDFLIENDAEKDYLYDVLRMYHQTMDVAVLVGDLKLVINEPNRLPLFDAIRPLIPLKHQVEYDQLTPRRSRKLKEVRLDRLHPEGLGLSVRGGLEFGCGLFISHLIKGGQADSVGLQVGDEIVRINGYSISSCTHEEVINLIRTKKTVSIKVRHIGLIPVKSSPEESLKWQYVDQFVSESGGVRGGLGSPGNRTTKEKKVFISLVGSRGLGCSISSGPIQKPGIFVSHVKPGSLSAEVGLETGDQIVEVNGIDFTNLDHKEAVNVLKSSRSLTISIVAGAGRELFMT

In assay [2] the target is T2, harmonin-a Nter-PDZ1 fragment (residues 1-203) (UniProt Q9ES64 1-203).
T2 sequence (looked up): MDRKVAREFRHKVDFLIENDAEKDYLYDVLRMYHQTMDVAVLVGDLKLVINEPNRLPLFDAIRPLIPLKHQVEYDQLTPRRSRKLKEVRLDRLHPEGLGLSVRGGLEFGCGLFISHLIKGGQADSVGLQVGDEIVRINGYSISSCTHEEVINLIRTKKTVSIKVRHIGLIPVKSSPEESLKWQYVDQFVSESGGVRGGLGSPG

Assay [3] addresses T3, harmonin-a Nter domain (residues 1-79) (UniProt Q9ES64 1-79).
T3 sequence (looked up): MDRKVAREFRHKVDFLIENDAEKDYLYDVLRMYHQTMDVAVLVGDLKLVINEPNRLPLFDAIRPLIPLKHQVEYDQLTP

For assay [4], the target named is B1.
In assay [5] the target is B3.
The target of assay [6] is B4.
Assay [7] concerns the target GST-CDH23Δexon68ΔITEL (residues 847-1075).

In general, Kd refers to the equilibrium constant for the complex coming apart. As to B1, the figures for the dissociation constant (Kd) in assay [1], in assay [2] and in assay [3] were 64 ± 6 nM, 94 ± 8 nM and over 5000 nM, respectively.

Turning to B2, the dissociation constant (Kd) in assay [4] stood at 97 ± 14 nM; in assay [5], 79 ± 11 nM; in assay [6] it was 127 ± 12 nM; in assay [7] it was 48 ± 6 nM.

For B3, the dissociation constant Kd in assay [1] is 42 ± 11 nM; in assay [2], 79 ± 10 nM; in assay [3] it was over 5000 nM.

Regarding B4, the dissociation constant (Kd) in assay [1] is 66 ± 13 nM; in assay [2], 106 ± 5 nM; in assay [3], over 5000 nM.

The record behind these values is PMC2928128 (Human Molecular Genetics, 2010).
